Measurements from patent publication US20250281611A1 (BIOSCEPTRE AUST, published 2025).

B1: CD33 BRIDGE variant B15 (Fab)
light: GHNYTTRNILPGLNITSGGGGSEPKSSDKTHTGGGGSDIQMTQSPSSLSASVGDRVTITCRASESVDNYGISFMNWFQQKPGKAPKLLIYAASNQGSGVPSRFSGSGSGTDFTLTISSLQPDDFATYYCQQSKEVPWTFGQGTKVEIKRTVAAPSVFIFPPSDEQLKSGTASVVCLLNNFYPREAKVQWKVDNALQSGNSQESVTEQDSKDSTYSLSSTLTLSKADYEKHKVYACEVTHQGLSSPVTKSFNRGECHHHHHH
heavy: QVQLVQSGAEVKKPGSSVKVSCKASGYTFTDYNMHWVRQAPGQGLEWIGYIYPYNGGTGYNQKFKSKATITADESTNTAYMELSSLRSEDTAVYYCARGRPAMDYWGQGTLVTVSSASTKGPSVFPLAPSSKSTSGGTAALGCLVKDYFPEPVTVSWNSGALTSGVHTFPAVLQSSGLYSLSSVVTVPSSSLGTQTYICNVNHKPSNTKVDKKVEPKSCHHHHHH
notes: Lintuzumab-based Fab bridging molecule
B2: CD33 BRIDGE variant B16 (Fab)
light: GHNYTTRNILPGLNITSTFHKTSGSGKEPKSSDKTHTGGGGSDIQMTQSPSSLSASVGDRVTITCRASESVDNYGISFMNWFQQKPGKAPKLLIYAASNQGSGVPSRFSGSGSGTDFTLTISSLQPDDFATYYCQQSKEVPWTFGQGTKVEIKRTVAAPSVFIFPPSDEQLKSGTASVVCLLNNFYPREAKVQWKVDNALQSGNSQESVTEQDSKDSTYSLSSTLTLSKADYEKHKVYACEVTHQGLSSPVTKSFNRGECHHHHHH
heavy: B1 heavy
notes: as for B1
B3: CD33 BRIDGE variant B17 (Fab)
light: GHNYTTRNILPGLNITSTFHKTSGSGKGSEPKSSDKTHTGGGGSDIQMTQSPSSLSASVGDRVTITCRASESVDNYGISFMNWFQQKPGKAPKLLIYAASNQGSGVPSRFSGSGSGTDFTLTISSLQPDDFATYYCQQSKEVPWTFGQGTKVEIKRTVAAPSVFIFPPSDEQLKSGTASVVCLLNNFYPREAKVQWKVDNALQSGNSQESVTEQDSKDSTYSLSSTLTLSKADYEKHKVYACEVTHQGLSSPVTKSFNRGECHHHHHH
heavy: B1 heavy
notes: as for B1
B4: CD33 BRIDGE variant B18 (Fab)
light: GHNYTTRNILPGLNITSTFHKTSGSGKGGGGSEPKSSDKTHTGGGGSDIQMTQSPSSLSASVGDRVTITCRASESVDNYGISFMNWFQQKPGKAPKLLIYAASNQGSGVPSRFSGSGSGTDFTLTISSLQPDDFATYYCQQSKEVPWTFGQGTKVEIKRTVAAPSVFIFPPSDEQLKSGTASVVCLLNNFYPREAKVQWKVDNALQSGNSQESVTEQDSKDSTYSLSSTLTLSKADYEKHKVYACEVTHQGLSSPVTKSFNRGECHHHHHH
heavy: B1 heavy
notes: as for B1
B5: CD33 BRIDGE variant B19 (Fab, V domains shown)
VH: QVQLVQSGAEVKKPGSSVKVSCKASGYTFTDYNMHWVRQAPGQGLEWIGYIYPYNGGTGYNQKFKSKATITADESTNTAYMELSSLRSEDTAVYYCARGRPAMDYWGQGTLVTVSS
VL: DIQMTQSPSSLSASVGDRVTITCRASESVDNYGISFMNWFQQKPGKAPKLLIYAASNQGSGVPSRFSGSGSGTDFTLTISSLQPDDFATYYCQQSKEVPWTFGQGTKVEIKR
notes: as for B1
B6: CD33 BRIDGE variant B20 (Fab, V domains shown)
VH: B5 VH
VL: B5 VL
notes: as for B1
B7: CD33 BRIDGE variant B25 (Fab, V domains shown)
VH: B5 VH
VL: B5 VL
notes: as for B1
B8: CD33 BRIDGE variant B21 (Fab)
light: DFPGHNYTTRNILPGLNITSGGGGSEPKSSDKTHTDIQMTQSPSSLSASVGDRVTITCRASESVDNYGISFMNWFQQKPGKAPKLLIYAASNQGSGVPSRFSGSGSGTDFTLTISSLQPDDFATYYCQQSKEVPWTFGQGTKVEIKRTVAAPSVFIFPPSDEQLKSGTASVVCLLNNFYPREAKVQWKVDNALQSGNSQESVTEQDSKDSTYSLSSTLTLSKADYEKHKVYACEVTHQGLSSPVTKSFNRGECHHHHHH
heavy: B1 heavy
notes: as for B1
B9: CD33 BRIDGE variant B22 (Fab)
light: DFPGHNYTTRNILPGLNITSTFHKTSGSGKEPKSSDKTHTDIQMTQSPSSLSASVGDRVTITCRASESVDNYGISFMNWFQQKPGKAPKLLIYAASNQGSGVPSRFSGSGSGTDFTLTISSLQPDDFATYYCQQSKEVPWTFGQGTKVEIKRTVAAPSVFIFPPSDEQLKSGTASVVCLLNNFYPREAKVQWKVDNALQSGNSQESVTEQDSKDSTYSLSSTLTLSKADYEKHKVYACEVTHQGLSSPVTKSFNRGECHHHHHH
heavy: B1 heavy
notes: as for B1
B10: CD33 BRIDGE variant B23 (Fab)
light: DFPGHNYTTRNILPGLNITSTFHKTSGSGKGSEPKSSDKTHTDIQMTQSPSSLSASVGDRVTITCRASESVDNYGISFMNWFQQKPGKAPKLLIYAASNQGSGVPSRFSGSGSGTDFTLTISSLQPDDFATYYCQQSKEVPWTFGQGTKVEIKRTVAAPSVFIFPPSDEQLKSGTASVVCLLNNFYPREAKVQWKVDNALQSGNSQESVTEQDSKDSTYSLSSTLTLSKADYEKHKVYACEVTHQGLSSPVTKSFNRGECHHHHHH
heavy: B1 heavy
notes: as for B1

molecular target: T1, nfP2X7 CAR 1; assay: flow cytometry, nfP2X7 CAR T cells (EGFR+), anti-His-FITC detection
T1 construct: Expressed on T cells with truncated EGFR as marker gene; also called anti-nfP2X7 receptor CAR 1; nfP2X7 targeted CAR on EGFR+ T cells
Description: (§1) nfP2X₇ CAR T cells were incubated with different BRiDGE variants at saturating concentrations. […] The MFI intensity correlates with the number of secondary bound antibodies bound to the BRiDGEs that are only detected if they are bound to the CAR T cells. EGFR was used as a marker gene to detect the CAR expression. Thus, the EGFR+ T cell population was defined as the CAR expressing cells and the EGFR− T cell population was defined as the CAR negative subset. MFI: median fluorescence intensity. EGFR: epidermal growth factor receptor. BLItz: Bio-Layer interferometry (BLI) technology using HIS-tag identification tips. HIS-tag MFI Ratio: relative index that is calculated by the testing condition MFI divided by the control MFI, which corresponds to the MFI measured on EGFR+ T cells (defined as CAR positive cells) divided by the MFI measured on the EGFR− T cells (defined as CAR negative cells). […] The higher the MFIR, the stronger the binding.

Row | Binder | MFI HisTag FITC in EGFR+ Population
1 | B1 | 1.5
2 | B2 | 1.83
3 | B3 | 1.58
4 | B4 | 1.79
5 | B5 | 1.29
6 | B6 | 1.29
7 | B7 | 1.82
8 | B8 | 1.14
9 | B9 | 1.44
10 | B10 | 1.71

molecular target: T2, CD33 (UniProt P20138 18-364, limits assumed); assay: flow cytometry, MOLM-13 cells, anti-His-FITC detection, ratio to no bridge
T2 construct: whole, on cells; also called Siglec-3; CD33 on MOLM-13 cells
T2 sequence (P20138 18-364 limits assumed): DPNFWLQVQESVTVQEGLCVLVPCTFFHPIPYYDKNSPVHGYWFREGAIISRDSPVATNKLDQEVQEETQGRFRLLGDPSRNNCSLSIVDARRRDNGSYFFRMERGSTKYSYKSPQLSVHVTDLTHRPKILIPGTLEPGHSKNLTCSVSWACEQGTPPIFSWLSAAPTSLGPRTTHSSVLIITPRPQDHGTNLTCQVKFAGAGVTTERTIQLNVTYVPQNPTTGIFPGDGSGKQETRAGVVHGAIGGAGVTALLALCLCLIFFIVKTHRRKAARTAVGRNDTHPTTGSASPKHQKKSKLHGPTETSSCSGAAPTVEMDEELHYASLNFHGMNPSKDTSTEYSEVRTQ
Description: (§2) MOLM-13 cells were incubated with different CD33 BRIDGE variants at saturating concentrations. […] The MFI intensity correlates with the number of secondary antibodies bound to the CD33 BRIDGE variants that are only detected if they are bound to the MOLM-13 cells. MFI: median fluorescence intensity. BLItz: Bio-Layer interferometry (BLI) technology using HIS-tag identification tips. […] The higher the MFIR, the stronger the binding.

Row | Binder | MFIR HisTag FITC
11 | B1 | 11.4
12 | B2 | 9.36
13 | B3 | 11
14 | B4 | 8.64
15 | B5 | 7.99
16 | B6 | 8.46
17 | B7 | 10.9
18 | B8 | 9.01
19 | B9 | 6.88
20 | B10 | 10.2

molecular target: T1, nfP2X7 CAR 1; assay: flow cytometry, CAR T cells, anti-His-FITC, EGFR+ MFI over background 0.4
Description: as §1

Row | Binder | HisTag MFI Ratio (background 0.4)
21 | B1 | 3.8
22 | B2 | 4.6
23 | B3 | 4
24 | B4 | 4.5
25 | B5 | 3.2
26 | B6 | 3.2
27 | B7 | 4.6
28 | B8 | 2.9
29 | B9 | 3.6
30 | B10 | 4.3

molecular target: T2, CD33; assay: flow cytometry, MOLM-13 cells, anti-His-FITC detection
Description: as §2

Row | Binder | MFI HisTag FITC
31 | B1 | 7.64
32 | B2 | 6.27
33 | B3 | 7.36
34 | B4 | 5.79
35 | B5 | 5.35
36 | B6 | 5.67
37 | B7 | 7.29
38 | B8 | 6.04
39 | B9 | 4.61
40 | B10 | 6.82

molecular target: T1, nfP2X7 CAR 1; assay: flow cytometry, CAR T cells, anti-His-FITC, EGFR+ over EGFR- cells
Description: as §1

Row | Binder | HisTag MFI Ratio of EGFR+/EGFR-
41 | B1 | 3.1
42 | B2 | 3.4
43 | B3 | 3.2
44 | B4 | 3.4
45 | B5 | 2.9
46 | B6 | 2.9
47 | B7 | 3.4
48 | B8 | 2.8
49 | B9 | 3.1
50 | B10 | 3.4
